# B1: GST-R-Ras (other, UniProt P10301 1-218, looked up)
# chain: MSSGAASGTGRGRPRGGGPGPGDPPPSETHKLVVVGGGGVGKSALTIQFIQSYFVSDYDPTIEDSYTKICSVDGIPARLDILDTAGQEEFGAMREQYMRAGHGFLLVFAINDRQSFNEVGKLFTQILRVKDRDDFPVVLVGNKADLESQRQVPRSEASAFGASHHVAYFEASAKLRLNVDEAFEQLVRAVRKYQEQELPPSPPSAPRKKGGGCPCVLL
# notes: Expressed in E. coli, on glutathione-Sepharose beads; also called GST-Ras; not shown: GST tag
# Target: T1, PLD2^wt (Homo sapiens, UniProt O14939 1-933)
# T1 construct: Ectopically expressed in COS7 or HEK293 cells from a mammalian expression vector; used as cell lysate; also called phospholipase D2
# Assay: GST pull-down with PLD2-expressing cell lysates
# T1 sequence (O14939 whole entry R172C/T577I): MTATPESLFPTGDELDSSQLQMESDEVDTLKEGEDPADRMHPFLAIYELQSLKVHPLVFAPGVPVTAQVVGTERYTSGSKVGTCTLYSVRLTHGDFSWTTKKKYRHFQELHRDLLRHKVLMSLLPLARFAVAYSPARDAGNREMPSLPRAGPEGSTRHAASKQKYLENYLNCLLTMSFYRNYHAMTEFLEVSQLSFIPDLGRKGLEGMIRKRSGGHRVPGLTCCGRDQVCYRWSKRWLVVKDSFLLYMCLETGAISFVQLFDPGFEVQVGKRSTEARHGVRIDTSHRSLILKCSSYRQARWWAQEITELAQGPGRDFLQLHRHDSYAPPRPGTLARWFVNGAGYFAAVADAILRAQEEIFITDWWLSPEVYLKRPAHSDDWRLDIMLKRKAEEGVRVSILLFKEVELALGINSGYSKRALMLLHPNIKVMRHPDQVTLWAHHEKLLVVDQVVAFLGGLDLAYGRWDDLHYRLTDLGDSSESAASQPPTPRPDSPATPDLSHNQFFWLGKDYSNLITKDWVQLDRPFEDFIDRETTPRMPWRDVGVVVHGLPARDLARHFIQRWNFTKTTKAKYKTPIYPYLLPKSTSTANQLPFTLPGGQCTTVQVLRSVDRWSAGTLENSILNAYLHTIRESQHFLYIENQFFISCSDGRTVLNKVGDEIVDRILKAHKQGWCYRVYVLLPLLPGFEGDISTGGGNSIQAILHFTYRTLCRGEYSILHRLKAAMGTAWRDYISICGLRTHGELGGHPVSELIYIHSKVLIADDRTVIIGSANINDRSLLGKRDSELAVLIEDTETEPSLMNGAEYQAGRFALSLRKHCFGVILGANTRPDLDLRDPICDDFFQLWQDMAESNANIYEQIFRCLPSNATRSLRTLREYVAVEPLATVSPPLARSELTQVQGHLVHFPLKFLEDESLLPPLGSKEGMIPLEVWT
binder,measurement,value
B1,binding result,no binding
